In article PMC12133298:
pKd: −log10 of the molar value.

Test system: Rho Y80C (Escherichia coli)
Test: EMSA
Settings: 37 C, 1 mM ATP, 25 mM Tris-Cl pH 8.0, 50 mM KCl, 5 mM MgCl2, 1 mM DTT, 37 C (or 4 C), 15 min, 0.8% agarose 0.5x TBE, 5 nM DNA

Substance	pKd (5 mM Mg2+)	binding signal (fold weaker than WT)
3.5 kb linear dsDNA	6.74	–
pBR322	–	7
